# Patent publication US20260132178A1 (SYNERKINE PHARMA B V, published 2026)
# T1: IL10 receptor (UniProt Q13651 22-578; Q08334 20-325, limits assumed)
# T1 sequence (looked up) 1: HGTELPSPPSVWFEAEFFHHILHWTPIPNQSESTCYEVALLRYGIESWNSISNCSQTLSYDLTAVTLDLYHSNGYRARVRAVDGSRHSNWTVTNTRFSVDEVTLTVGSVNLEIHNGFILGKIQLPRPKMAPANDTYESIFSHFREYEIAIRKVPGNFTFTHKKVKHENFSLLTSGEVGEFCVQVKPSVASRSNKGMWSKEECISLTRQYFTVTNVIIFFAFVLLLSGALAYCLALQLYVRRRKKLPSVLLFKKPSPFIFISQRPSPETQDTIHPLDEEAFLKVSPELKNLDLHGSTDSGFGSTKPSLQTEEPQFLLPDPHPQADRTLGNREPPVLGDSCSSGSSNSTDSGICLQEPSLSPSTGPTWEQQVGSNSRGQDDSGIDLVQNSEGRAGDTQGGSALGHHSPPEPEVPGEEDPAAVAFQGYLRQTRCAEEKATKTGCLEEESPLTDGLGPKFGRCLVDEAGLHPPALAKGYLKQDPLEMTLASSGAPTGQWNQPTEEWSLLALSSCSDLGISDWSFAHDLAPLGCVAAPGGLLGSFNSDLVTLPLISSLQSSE
# T1 sequence (looked up) 2: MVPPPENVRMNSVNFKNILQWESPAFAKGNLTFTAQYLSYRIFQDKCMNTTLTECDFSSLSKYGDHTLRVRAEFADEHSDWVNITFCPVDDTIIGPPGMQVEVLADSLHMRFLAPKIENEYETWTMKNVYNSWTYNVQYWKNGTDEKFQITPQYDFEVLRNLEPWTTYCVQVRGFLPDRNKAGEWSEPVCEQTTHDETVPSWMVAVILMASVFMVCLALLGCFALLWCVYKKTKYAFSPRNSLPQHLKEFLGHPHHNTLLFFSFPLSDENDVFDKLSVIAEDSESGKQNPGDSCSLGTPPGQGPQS
# T2: IL4 (type II) receptor (UniProt P24394 26-825; P78552 22-427, limits assumed)
# T2 sequence (looked up) 1: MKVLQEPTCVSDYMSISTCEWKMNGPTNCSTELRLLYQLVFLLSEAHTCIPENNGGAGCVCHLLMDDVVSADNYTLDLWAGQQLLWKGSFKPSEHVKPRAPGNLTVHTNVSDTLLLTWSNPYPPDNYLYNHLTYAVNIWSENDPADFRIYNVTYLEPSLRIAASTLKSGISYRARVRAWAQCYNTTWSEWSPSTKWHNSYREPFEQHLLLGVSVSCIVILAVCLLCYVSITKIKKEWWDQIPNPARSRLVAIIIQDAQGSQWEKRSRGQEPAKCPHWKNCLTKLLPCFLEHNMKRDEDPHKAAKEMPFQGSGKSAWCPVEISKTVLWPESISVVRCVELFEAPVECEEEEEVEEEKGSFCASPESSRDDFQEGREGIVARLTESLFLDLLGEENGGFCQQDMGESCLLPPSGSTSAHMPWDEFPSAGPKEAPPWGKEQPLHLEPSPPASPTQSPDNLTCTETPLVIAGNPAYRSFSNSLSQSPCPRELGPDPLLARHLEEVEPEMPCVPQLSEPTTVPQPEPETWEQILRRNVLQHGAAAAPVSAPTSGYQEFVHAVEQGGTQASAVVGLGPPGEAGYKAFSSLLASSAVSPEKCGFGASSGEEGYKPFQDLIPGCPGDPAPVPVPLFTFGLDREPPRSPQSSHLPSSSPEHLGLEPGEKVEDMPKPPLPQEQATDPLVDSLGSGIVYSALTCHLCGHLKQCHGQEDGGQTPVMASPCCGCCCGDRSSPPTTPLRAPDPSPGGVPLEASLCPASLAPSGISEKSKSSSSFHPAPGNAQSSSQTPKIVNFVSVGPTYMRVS
# T2 sequence (looked up) 2: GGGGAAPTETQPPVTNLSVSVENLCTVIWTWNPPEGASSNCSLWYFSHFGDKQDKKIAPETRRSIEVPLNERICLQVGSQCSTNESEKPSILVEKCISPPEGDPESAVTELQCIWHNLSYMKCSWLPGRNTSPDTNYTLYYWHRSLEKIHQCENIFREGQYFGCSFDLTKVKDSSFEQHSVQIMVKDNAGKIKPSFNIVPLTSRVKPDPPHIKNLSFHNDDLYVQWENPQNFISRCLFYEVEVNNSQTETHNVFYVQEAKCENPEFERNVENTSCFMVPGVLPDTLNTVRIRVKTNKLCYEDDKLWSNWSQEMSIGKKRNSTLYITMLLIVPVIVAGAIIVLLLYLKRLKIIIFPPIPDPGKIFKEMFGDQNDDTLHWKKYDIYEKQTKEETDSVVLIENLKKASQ
# B1: IL4-13 (mouse) (ligand)
# chain: HHHHHHIHGCDKNHLREIIGILNEVTGEGTPCTEMDVPNVLTATKNTTESELVCRASKVLRIFYLKHGKTPCLKKNSSVLMELQRLFRAFRCLDSSISCTMNESKSTSLKDFLESLKSIMQMDYSGSGGGGSGTAPGPVPRSVSLPLTLKELIEELSNITQDQTPLCNGSMVWSVDLAAGGFCVALDSLTNISNCNAIYRTQRILHGLCNRKAPTTVSSLPDTKIEVAHFITKLLSYTKQLFRHGPF
# B2: IL4-13 Fc (mouse) (Fc fusion)
# chain 1: HIHGCDKNHLREIIGILNEVTGEGTPCTEMDVPNVLTATKNTTESELVCRASKVLRIFYLKHGKTPCLKKNSSVLMELQRLFRAFRCLDSSISCTMNESKSTSLKDFLESLKSIMQMDYSGSGGGGSGTCKPCICTVPEVSSVFIFPPKPKDVLTITLTPKVTCVVVAISKDDPEVQFSWFVDDVEVHTAQTKPREEQINSTFRSVSELPIMHQDWLNGKEFKCRVNSAAFPAPIEKTISKTKGRPKAPQVYTIPPPKKQMAKDKVSLTCMITNFFPEDITVEWQWNGQPAENYKNTQPIMKTDGSYFVYSKLNVQKSNWEAGNTFTCSVLHEGLHNHHTEKSLSHSPGK
# chain 2: APGPVPRSVSLPLTLKELIEELSNITQDQTPLCNGSMVWSVDLAAGGFCVALDSLTNISNCNAIYRTQRILHGLCNRKAPTTVSSLPDTKIEVAHFITKLLSYTKQLFRHGPFTGSGGGGSGTCKPCICTVPEVSSVFIFPPKPKDVLTITLTPKVTCVVVAISKDDPEVQFSWFVDDVEVHTAQTKPREEQINSTFRSVSELPIMHQDWLNGKEFKCRVNSAAFPAPIEKTISKTKGRPKAPQVYTIPPPKEQMAKDKVSLTCMITNFFPEDITVEWQWNGQPAENYKNTQPIMDTDGSYFVYSELNVQKSNWEAGNTFTCSVLHEGLHNHHTEDSLSHSPGK
# B3: IL10M(S) (ligand)
# chain: KSKAVEQVKNAFNKLQEKGIYKAMSEFDIFINYIEAYMTMKIRNGSGGGGSGTSPGQGTQSENSCTHFPGNLPNMLRDLRDAFSRVKTFFQMKDQLDNLLLKESLLEDFKGYLGCQALSEMIQFYLEEVMPQAENQDPDIKAHVNSLGENLKTLRLRLRRCHRFLPCEN
# B4: IL10M(J) (ligand)
# chain: SPGQGTQSENSCTHFPGNLPNMLRDLRDAFSRVKTFFQMKDQLDNLLLKESLLEDFKGYLGCQALSEMIQFYLEEVMPQAENQDPDIKAHVNSLGENLKTLRLRLRRCHRFLPCENGGGSGGKSKAVEQVKNAFNKLQEKGIYKAMSEFDIFINYIEAYMTMKIRN
# B5: IL4-10M(J) mouse Fc (Fc fusion)
# chain 1: HKCDITLQEIIKTLNSLTEQKTLCTELTVTDIFAASKNTTEKETFCRAATVLRQFYSHHEKDTRCLGATAQQFHRHKQLIRFLKRLDRNLWGLAGLNSCPVKEANQSTLENFLERLKTIMREKYSKCSSGSGGGGSGTCKPCICTVPEVSSVFIFPPKPKDVLTITLTPKVTCVVVAISKDDPEVQFSWFVDDVEVHTAQTKPREEQINSTFRSVSELPIMHQDWLNGKEFKCRVNSAAFPAPIEKTISKTKGRPKAPQVYTIPPPKKQMAKDKVSLTCMITNFFPEDITVEWQWNGQPAENYKNTQPIMKTDGSYFVYSKLNVQKSNWEAGNTFTCSVLHEGLHNHHTEKSLSHSPGK
# chain 2: SPGQGTQSENSCTHFPGNLPNMLRDLRDAFSRVKTFFQMKDQLDNLLLKESLLEDFKGYLGCQALSEMIQFYLEEVMPQAENQDPDIKAHVNSLGENLKTLRLRLRRCHRFLPCENGGGSGGKSKAVEQVKNAFNKLQEKGIYKAMSEFDIFINYIEAYMTMKIRNTGSGGGGSGTCKPCICTVPEVSSVFIFPPKPKDVLTITLTPKVTCVVVAISKDDPEVQFSWFVDDVEVHTAQTKPREEQINSTFRSVSELPIMHQDWLNGKEFKCRVNSAAFPAPIEKTISKTKGRPKAPQVYTIPPPKEQMAKDKVSLTCMITNFFPEDITVEWQWNGQPAENYKNTQPIMDTDGSYFVYSELNVQKSNWEAGNTFTCSVLHEGLHNHHTEDSLSHSPGK
# B6: IL4-10M(S) (ligand)
# chain: KSKAVEQVKNAFNKLQEKGIYKAMSEFDIFINYIEAYMTMKIRNGSGGGGSGTSPGQGTQSENSCTHFPGNLPNMLRDLRDAFSRVKTFFQMKDQLDNLLLKESLLEDFKGYLGCQALSEMIQFYLEEVMPQAENQDPDIKAHVNSLGENLKTLRLRLRRCHRFLPCENGSGGGGSGTHKCDITLQEIIKTLNSLTEQKTLCTELTVTDIFAASKNTTEKETFCRAATVLRQFYSHHEKDTRCLGATAQQFHRHKQLIRFLKRLDRNLWGLAGLNSCPVKEANQSTLENFLERLKTIMREKYSKCSSHHHHHH
# B7: IL4-10M(J) (ligand)
# chain: HKCDITLQEIIKTLNSLTEQKTLCTELTVTDIFAASKNTTEKETFCRAATVLRQFYSHHEKDTRCLGATAQQFHRHKQLIRFLKRLDRNLWGLAGLNSCPVKEANQSTLENFLERLKTIMREKYSKCSSGSGGGGSGTSPGQGTQSENSCTHFPGNLPNMLRDLRDAFSRVKTFFQMKDQLDNLLLKESLLEDFKGYLGCQALSEMIQFYLEEVMPQAENQDPDIKAHVNSLGENLKTLRLRLRRCHRFLPCENGGGSGGKSKAVEQVKNAFNKLQEKGIYKAMSEFDIFINYIEAYMTMKIRN
# B8: IL4-10 fusion (wt, dimer) (ligand)
# chain: HKCDITLQEIIKTLNSLTEQKTLCTELTVTDIFAASKNTTEKETFCRAATVLRQFYSHHEKDTRCLGATAQQFHRHKQLIRFLKRLDRNLWGLAGLNSCPVKEANQSTLENFLERLKTIMREKYSKCSSGSGGGGSGTSPGQGTQSENSCTHFPGNLPNMLRDLRDAFSRVKTFFQMKDQLDNLLLKESLLEDFKGYLGCQALSEMIQFYLEEVMPQAENQDPDIKAHVNSLGENLKTLRLRLRRCHRFLPCENKSKAVEQVKNAFNKLQEKGIYKAMSEFDIFINYIEAYMTMKIRN
# B9: IL4-Fc (Fc fusion)
# chain: HKCDITLQEIIKTLNSLTEQKTLCTELTVTDIFAASKNTTEKETFCRAATVLRQFYSHHEKDTRCLGATAQQFHRHKQLIRFLKRLDRNLWGLAGLNSCPVKEANQSTLENFLERLKTIMREKYSKCSSGSGGGGSGTCPPCPAPELLGGPSVFLFPPKPKDTLMISRTPEVTCVVVDVSHEDPEVKFNWYVDGVEVHNAKTKPREEQYNSTYRVVSVLTVLHQDWLNGKEYKCKVSNKALPAPIEKTISKAKGQPREPQVCTLPPSRDELTKNQVSLSCAVKGFYPSDIAVEWESNGQPENNYKTTPPVLDSDGSFFLVSKLTVDKSRWQQGNVFSCSVMHEALHNHYTQKSLSLSPGK
# Molecular target: mIL4Ra/mIL13Ra2 (mouse, UniProt P16382 26-257; O88786 22-355)
# Assay: cell-based or functional assay
# Chain of mIL4Ra/mIL13Ra2 (P16382 26-257, chain 1 of 2): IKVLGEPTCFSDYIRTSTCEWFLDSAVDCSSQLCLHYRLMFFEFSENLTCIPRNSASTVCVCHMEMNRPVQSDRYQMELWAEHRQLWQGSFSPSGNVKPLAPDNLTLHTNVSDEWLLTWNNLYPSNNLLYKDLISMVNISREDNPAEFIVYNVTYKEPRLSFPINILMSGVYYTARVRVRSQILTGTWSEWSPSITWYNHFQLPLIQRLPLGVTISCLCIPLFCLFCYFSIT
# Chain of mIL4Ra/mIL13Ra2 (O88786 22-355, chain 2 of 2): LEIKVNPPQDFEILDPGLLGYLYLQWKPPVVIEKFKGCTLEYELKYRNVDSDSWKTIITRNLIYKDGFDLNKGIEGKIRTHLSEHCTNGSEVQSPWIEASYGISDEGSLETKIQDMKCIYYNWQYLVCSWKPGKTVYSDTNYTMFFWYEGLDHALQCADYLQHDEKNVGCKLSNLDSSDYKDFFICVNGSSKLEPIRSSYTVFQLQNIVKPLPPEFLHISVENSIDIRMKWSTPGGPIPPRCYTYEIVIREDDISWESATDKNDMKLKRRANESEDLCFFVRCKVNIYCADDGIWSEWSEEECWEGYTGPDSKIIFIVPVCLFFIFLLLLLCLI
row,Heterologous clustering mIL4Ra/mIL13Ra2 EC50 (NanoBiT enzyme complementation) [pM],Binder
1,187,B1
2,1100,B2

# Molecular target: T1, IL10 receptor
# Assay: cell-based or functional assay
row,HEK-Blue IL10 EC50 (STAT-3 mediated SEAP expression) [pM],Binder
1,149,B3
2,63.4,B4
3,520,B5
4,117,B6
5,77.8,B7
6,28.9,B8

# Molecular target: T2, IL4 (type II) receptor
# Assay: cell-based or functional assay
row,HEK-Blue IL4/13 EC50 (STAT6-induced SEAP expression) [pM],Binder
1,20.1,B9
